Patent US8034904B2, “Anti-IGF-I receptor antibody” (Immunogen Inc., priority 2002, dated 2011)

Legend:
[1] = tested on: Human non-small cell lung cancer Calu-6 xenografts; type: in vivo
Excerpt: Human non-small cell lung cancer Calu-6 xenografts were established in immunodeficient mice by subcutaneous injections of 1×10^7 Calu-6 cells.

NCI-H838 (lung) cells = assay: Growth and survival of NCI-H838 cells (MTT assay); type: cell-based, human
Experimental: (§1) Several human tumor cell lines were tested in serum-free conditions for their growth and survival response to IGF-I. These cell lines were treated with EM164 antibody in the presence of IGF-I, IGF-II, or serum, and their growth and survival responses were measured using an MTT assay after 2-4 days. Approximately 1500 cells were plated in a 96-well plate in regular medium with serum, which was replaced with serum-free medium the following day (either serum-free RPMI medium supplemented with transferrin and BSA, or phenol-red free medium as specified by Dufourny, B. et al., 1997, J. Biol. Chem., 272, 31163-31171). After one day of growth in serum-free medium, the cells were incubated with about 75 μL of 10 μg/mL antibody for 30 min.-3 h, followed by the addition of 25 μL of IGF-I (or IGF-II or serum) solution to obtain a final concentration of 10 ng/mL IGF-I, or 20 ng/mL IGF-II, or 0.04-10% serum. In some experiments, the cells were stimulated first with IGF-I for 15 min before the addition of EM164 antibody, or both IGF-I and EM164 antibody were added together. The cells were then allowed to grow for another 2-3 days. A solution of MTT (3-(4,5)-dimethylthiazol-2-yl)-2,5-diphenyltetrazolium bromide; 25 μL of a 5 mg/mL solution in PBS) was then added and the cells were returned to the incubator for 2-3 h. The medium was then removed and replaced by 100 μL DMSO, mixed, and the absorbance of the plate was measured at 545 nm.

[2] = tested on: RD (rhabdomyocarcoma) cells; assay: Growth and survival of RD cells (MTT assay); type: cell-based, human
Experimental: as §1

MCF-7 cells [3] = assay: Growth inhibition of MCF-7 cells by counting cells; type: cell-based, human; settings: 10 μg/mL EM164
Experimental: The growth inhibition of MCF-7 cells by EM164 antibody was measured by counting cells. Thus, in a 12-well plate, about 7500 cells were plated in RPMI medium with 10% FBS, in the presence or absence of 10 μg/mL EM164 antibody. After 5 days of growth, the cell count for the untreated control sample was 20.5×10^4 cells, in contrast to a cell count of only 1.7×10^4 cells for the EM164 antibody-treated sample.

[4] = tested on: NCI-H838 lung cancer cells; assay: Apoptosis: caspase-cleaved cytokeratin CK18 in NCI-H838 cells; type: cell-based, human; settings: IGF-I or serum, presence vs absence of EM164, 1 day
Experimental: For measurement of apoptosis, cleavage of the cytokeratin CK18 protein by caspase was measured in NCI-H838 lung cancer cells incubated with IGF-I or serum in the presence or absence of EM164 for 1 day (FIG. 26).

human insulin receptor = target: T1, human insulin receptor (Homo sapiens, UniProt P06213); assay: FACS binding to cells overexpressing human insulin receptor; settings: EM164 50-100 nM
T1 construct: expressed in transfected cells; host or cells: 3T3-like cells of IGF-I receptor deficient mice
Experimental: Incubation of EM164 antibody (50-100 nM) in 100 μL cold FACS buffer (1 mg/mL BSA in Dulbecco's MEM medium) was performed using cells overexpressing IGF-I receptor and using cells overexpressing insulin receptor (2×10^5 cells/mL) in a round-bottom 96-well plate for 1 h. The cells were pelleted by centrifugation and washed with cold FACS buffer by gentle flicking, followed by incubation with goat-anti-mouse-IgG-antibody-FITC conjugate (100 μL; 10 μg/mL in FACS buffer) on ice for 1 h. The cells were pelleted, washed, and resuspended in 120 μL of 1% formaldehyde solution in PBS. The plate was analyzed using a FACSCalibur reader (BD Biosciences).

A 549 cells = assay: Growth and survival of A 549 cells (MTT assay); type: cell-based, human; settings: 5-10 μg/mL EM164, 10 ng/mL IGF-I
Experimental: as §1, with “A solution of MTT (3-(4,5)-dimethylthiazol-2-yl)-2,5-diphenyltetrazolium bromide; 25 μL of a 5 mg/mL solution in PBS) was then added and the cells were returned to the incubator for 2-3 h.” left out

[5] = tested on: truncated IGF-I receptor alpha chain construct (residues 1-468 fused to 704-719, myc tag); assay: Binding to truncated IGF-I receptor alpha chain construct; parameters: species or system human
Excerpt: The binding domain of EM164 antibody was further characterized using a truncated alpha chain construct, which comprised the cysteine rich domain flanked by L1 and L2 domains (residues 1-468) fused with the 16-mer-C-terminus piece (residues 704-719) and which was terminated by a C-terminus epitope tag. This smaller IGF-I receptor, which lacked residues 469-703, has been reported to bind IGF-I, although less tightly compared to the native full-length IGF-I receptor (Molina, L. et al., 2000, FEBS Letters, 467, 226-230; Kristensen, C. et al., 1999, J. Biol. Chem., 274, 37251-37356). Thus, a truncated IGF-I receptor alpha chain construct was prepared comprising residues 1-468 fused to the C-terminus piece that is residues 704-719 and flanked by a C-terminus myc epitope tag. A stable cell line which expressed this construct, and which also expresses the construct transiently in human embryonic kidney 293T cells, was constructed.

Akt and Erk1/2 = assay: IGF-I receptor signaling in MCF-7 cells (Western blots, phospho-Akt and phospho-Erk1/2); type: cell-based, human
MCF-7 cells [6] = assay: Cell cycle analysis of MCF-7 cells (propidium iodide, flow cytometry); type: cell-based, human; settings: IGF-I 20 ng/mL with or without EM164 20 μg/mL, 1 day
Experimental: The EM164 antibody caused growth arrest of cells in G0/G1 phase of cell cycle and abrogated the mitogenic effect of IGF-I. For cell cycle analysis, MCF-7 cells were treated with IGF-I (20 ng/mL) in the presence or absence of EM164 (20 μg/mL) for 1 day and then analyzed by propidium iodide staining and flow cytometry.

Colo 205 (colon) cells = assay: Growth and survival of Colo 205 cells (MTT assay); type: cell-based, human
Experimental: as §1

[7] = target: T2, SDS-denatured human IGF-I receptor (Homo sapiens, UniProt P08069); assay: Western blot detection of SDS-denatured IGF-I receptor in MCF-7 lysates; type: binding; settings: lysates from MCF-7 cells
T2 construct: human breast cancer MCF-7 cells, which expressed IGF-I receptor; endogenous in cells; host or cells: MCF-7 human breast cancer cells
Excerpt: A Western blot of the EM164 antibody immunoprecipitate was detected using a rabbit polyclonal anti-IGF-I receptor beta chain (C-terminus) antibody (Santa Cruz Biotechnology) and a goat-anti-rabbit-IgG-antibody-horseradish peroxidase conjugate, followed by washes and enhanced chemiluminescence (ECL) detection.

[8] = 5-10 μg/mL EM164, 10 ng/mL IGF-I
[9] = 5-10 μg/mL EM164, MTT or colony formation assay

B1: EM164: murine anti-IGF-I receptor monoclonal antibody, IgG1 with kappa light chain, hybridoma ATCC PTA-4457; heavy SEQ ID NO:7, light SEQ ID NO:8 (antibody)
heavy: QVQLQQSGAELVKPGASVKLSCKASGYTFTSYWMHWVKQRPGQGLEWIGEINPSNGRTNYNEKFKRKATLTVDKSSSTAYMQLSSLTSEDSAVYYFARGRPDYYGSSKWYFDVWGAGTTVTVSS
light: DVLMTQTPLSLPVSLGDQASISCRSSQSIVHSNVNTYLEWYLQKPGQSPKLLIYKVSNRFSGVPDRFSGSGSGTDFTLRISRVEAEDLGIYYCFQGSHVPPTFGGGTKLEIKR
modifications: antibody heavy chain; antibody light chain
**Q.** For B1, which “toxicity based on weights of the mice” value ([1]; EM164 6 injections of 0.8 mg/mouse, i.v.) is on record?
**A.** No toxicity

**Q.** And the growth of tumors ([1]; established 100 mm^3 Calu-6 xenografts, EM164 0.8 mg/mouse i.v. x6, taxol 15 mg/kg i.p. x5)?
**A.** significantly slowed

**Q.** What about the “% Inhibition by EM164 antibody of Growth/survival of cells in 1.25-10% serum” value (NCI-H838 (lung) cells; NCI-H838 (lung), 5-10 μg/mL EM164) of the same molecule?
**A.** 85-90%

**Q.** And the “Inhibition by EM164 antibody of IGF-I-stimulated growth in serum-free medium” value (shortened to “Inhibition … in serum-free medium”) (NCI-H838 (lung) cells; NCI-H838 (lung), 5-10 μg/mL EM164, 10 ng/mL IGF-I)?
**A.** 100%

**Q.** What about the “inhibition of serum-stimulated growth” value (NCI-H838 (lung) cells; NCI-H838 cells) of the same molecule?
**A.** greater than 80%

**Q.** And the “IGF-1- and serum-stimulated growth and survival of NCI-H838” value (NCI-H838 (lung) cells; compared to a control anti-B4 antibody, FIG. 9)?
**A.** strongly inhibited

**Q.** What about the “Inhibition … in serum-free medium” value [2, 8] of the same molecule?
**A.** 85-100%

**Q.** And the “% Inhibition by EM164 antibody of Growth/survival of cells in 1.25-10% serum” value [2, 9]?
**A.** Yes

**Q.** What about the “cell count after 5 days of growth” value (MCF-7 cells [3]; RPMI with 10% FBS, about 7500 cells plated, untreated control 20.5×10^4 cells) of the same molecule?
**A.** 1.7×10^4 cells

**Q.** And the “inhibition of growth of MCF-7 cells” value (MCF-7 cells [3]; in 5 days, 10% FBS)?
**A.** about 12 fold

**Q.** And the “caspase-cleaved CK18 levels” value [4]?
**A.** greater cleaved CK18 levels

**Q.** What about the “fluorescence shift (FACS)” value (human insulin receptor) of the same molecule?
**A.** insignificant shift

**Q.** What about the “Inhibition … in serum-free medium” value (A 549 cells) of the same molecule?
**A.** 80%

**Q.** And the “binding to truncated IGF-I receptor alpha chain construct” value [5]?
**A.** strong binding

**Q.** And the “intracellular IGF-I receptor signaling” value (Akt and Erk1/2)?
**A.** almost completely inhibited

**Q.** What about the “activation of Akt and Erk1/2” value (Akt and Erk1/2; IGF-I stimulated) of the same molecule?
**A.** inhibited in a dose-dependent manner

**Q.** And the “cells in the G0/G1 phase” value (MCF-7 cells [6])?
**A.** 77%

**Q.** What about the “cells in the S phase” value (MCF-7 cells [6]) of the same molecule?
**A.** 9%

**Q.** What about the “Inhibition … in serum-free medium” value (Colo 205 (colon) cells; [8]) of the same molecule?
**A.** 50%

**Q.** What about the “% Inhibition by EM164 antibody of Growth/survival of cells in 1.25-10% serum” value (Colo 205 (colon) cells; [9]) of the same molecule?
**A.** Yes

**Q.** What about the “detection of SDS-denatured human IGF-I receptor in Western blots” value [7] of the same molecule?
**A.** did not detect
